Assay results: patent publication US20230295284A1 (MIT, published 2023)

Target: human plasma fibronectin (human, UniProt P02751-8 32-2296, limits assumed)
Test: Western blot, biotin-tagged nanobody

human plasma fibronectin, sequence (P02751 other isoform, or with tags, fused parts or gaps limits assumed): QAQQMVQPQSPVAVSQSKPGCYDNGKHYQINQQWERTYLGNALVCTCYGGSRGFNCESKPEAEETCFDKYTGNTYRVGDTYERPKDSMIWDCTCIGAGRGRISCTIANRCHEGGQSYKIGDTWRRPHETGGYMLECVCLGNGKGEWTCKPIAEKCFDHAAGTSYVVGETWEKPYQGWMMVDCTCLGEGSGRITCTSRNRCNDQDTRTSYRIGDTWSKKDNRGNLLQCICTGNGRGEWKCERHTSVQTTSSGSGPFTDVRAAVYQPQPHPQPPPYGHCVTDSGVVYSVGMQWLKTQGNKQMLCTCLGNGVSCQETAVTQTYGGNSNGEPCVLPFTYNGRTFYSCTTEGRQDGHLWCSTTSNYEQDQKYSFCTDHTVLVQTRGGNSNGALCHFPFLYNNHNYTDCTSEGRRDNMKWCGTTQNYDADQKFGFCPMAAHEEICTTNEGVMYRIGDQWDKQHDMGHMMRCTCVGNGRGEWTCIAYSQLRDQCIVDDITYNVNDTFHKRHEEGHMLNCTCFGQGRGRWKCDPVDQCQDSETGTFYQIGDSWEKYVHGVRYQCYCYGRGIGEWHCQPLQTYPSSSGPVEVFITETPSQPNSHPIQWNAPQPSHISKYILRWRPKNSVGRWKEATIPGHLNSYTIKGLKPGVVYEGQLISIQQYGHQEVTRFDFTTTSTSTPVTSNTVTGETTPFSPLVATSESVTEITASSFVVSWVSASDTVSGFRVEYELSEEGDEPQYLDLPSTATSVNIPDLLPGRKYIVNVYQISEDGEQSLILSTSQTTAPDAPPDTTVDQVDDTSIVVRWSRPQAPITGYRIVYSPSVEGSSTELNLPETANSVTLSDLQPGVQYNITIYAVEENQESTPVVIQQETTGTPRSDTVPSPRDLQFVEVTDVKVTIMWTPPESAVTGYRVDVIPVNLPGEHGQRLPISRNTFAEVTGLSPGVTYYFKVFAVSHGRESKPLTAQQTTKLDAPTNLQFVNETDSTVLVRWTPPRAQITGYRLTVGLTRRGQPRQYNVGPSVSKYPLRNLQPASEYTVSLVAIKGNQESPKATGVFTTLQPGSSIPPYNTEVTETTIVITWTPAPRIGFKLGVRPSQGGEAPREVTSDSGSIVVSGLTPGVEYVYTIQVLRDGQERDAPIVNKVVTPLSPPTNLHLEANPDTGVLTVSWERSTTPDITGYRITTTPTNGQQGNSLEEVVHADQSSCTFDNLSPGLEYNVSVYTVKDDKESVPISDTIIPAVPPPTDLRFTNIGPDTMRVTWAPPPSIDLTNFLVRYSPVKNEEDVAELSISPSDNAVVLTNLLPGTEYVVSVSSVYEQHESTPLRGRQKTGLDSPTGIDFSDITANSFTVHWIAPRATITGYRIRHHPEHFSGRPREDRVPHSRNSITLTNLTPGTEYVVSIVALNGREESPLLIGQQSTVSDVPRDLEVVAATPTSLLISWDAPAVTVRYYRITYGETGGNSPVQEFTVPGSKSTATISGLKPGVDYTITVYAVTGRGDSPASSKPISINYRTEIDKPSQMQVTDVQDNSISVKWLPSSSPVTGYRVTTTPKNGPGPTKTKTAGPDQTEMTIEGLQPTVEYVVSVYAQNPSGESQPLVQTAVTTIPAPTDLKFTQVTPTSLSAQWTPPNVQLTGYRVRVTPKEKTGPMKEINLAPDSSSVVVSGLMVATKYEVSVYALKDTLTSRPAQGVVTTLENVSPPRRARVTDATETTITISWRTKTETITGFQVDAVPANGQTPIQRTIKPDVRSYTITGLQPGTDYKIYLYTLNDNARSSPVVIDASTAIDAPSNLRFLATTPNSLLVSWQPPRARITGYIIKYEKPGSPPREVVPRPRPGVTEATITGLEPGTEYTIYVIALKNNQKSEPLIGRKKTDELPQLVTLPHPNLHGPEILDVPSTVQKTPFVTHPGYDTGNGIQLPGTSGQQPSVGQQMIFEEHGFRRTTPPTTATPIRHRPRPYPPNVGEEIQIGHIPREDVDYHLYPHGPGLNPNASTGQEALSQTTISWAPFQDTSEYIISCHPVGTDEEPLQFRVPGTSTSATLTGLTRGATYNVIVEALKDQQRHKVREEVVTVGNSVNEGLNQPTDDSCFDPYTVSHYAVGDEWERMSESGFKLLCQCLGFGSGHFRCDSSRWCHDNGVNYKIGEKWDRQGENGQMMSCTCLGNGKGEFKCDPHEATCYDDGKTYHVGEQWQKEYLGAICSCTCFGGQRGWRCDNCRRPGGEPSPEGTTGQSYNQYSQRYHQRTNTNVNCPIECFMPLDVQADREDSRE

Row | binding result | Binder
1 | no binding | LMJ2.5G (VHH, sortase-tagged with biotin in the Western blots ; Western blots used the nanobody sortase-tagged with biotin at a terminus. The BLI material was his-tag purified. Tag letters are not stated for the stand-alone nanobody and are left out., Second round of yeast display; Expressed in E. coli, his-tag purified) VHH: QVQLVETEGGLVQAGGSLRLSCAASGSTFSHSAGGWYRQAPEKQRELVAGIRSDGNINYADSVKDRFTISRDNASNTMYLQMNNLKPEDTAVYVCNIRGSYGNTYYSRWGQGTQVTVSS
2 | no binding | LMJ2.5C (VHH, sortase-tagged with biotin in the Western blots ; Purified by a his-tag for BLI and sortase-tagged with biotin in the Western blots. The tag letters are not stated for the free nanobody, so they are left out., Second round of yeast display; Expressed in E. coli, his-tag purified) VHH: QVQLVETGGGLVQAGGSLRLSCAASGSTFSHSAGGWYRQAPEKQRELVAGVRSDGNINYADSVKDRFTISRDNASNTMYLQMNNLKPEDTAVYVCNIRGSYGNTYYSRWGQGIQVTVSS
3 | no binding | LMJ2.5I (VHH, sortase-tagged with biotin in the Western blots ; Purified by a his-tag for BLI and sortase-tagged with biotin in the Western blots. The tag letters are not stated for the free nanobody, so they are left out., Second round of yeast display; Expressed in E. coli, his-tag purified) VHH: RVQLVETGGGLVQAGGSLRLSCAVSGSTFSHSAGGWYRQAPEKQRELVAGIRSDGNINYADSVKDRFTISRDNASNTMYLQMNNLKPEDTAVYVCNIRGSYGNTYYSRWGQGAQVTVSS
4 | no binding | LMJ2.5H (VHH, sortase-tagged with biotin in the Western blots ; Western blots used the nanobody sortase-tagged with biotin at a terminus. The BLI material was his-tag purified. Tag letters are not stated for the stand-alone nanobody and are left out., Second round of yeast display; Expressed in E. coli, his-tag purified) VHH: QVQLVETGGGLVQAGGSLRLSCAVSGSTFSHSAGGWYRQAPEKQRELVAGIRSDGNINYADSVKDRFTISRDNASNTMYLQMNNLKPEDTAVYVCNIRGSYGNTYYSRWGQGTQVTVSS
5 | no binding | LMJ2.6A (VHH, sortase-tagged with biotin in the Western blots ; Purified by a his-tag for BLI and sortase-tagged with biotin in the Western blots. The tag letters are not stated for the free nanobody, so they are left out., Second round of yeast display; Expressed in E. coli, his-tag purified) VHH: RVQLVETGGGLVQAGGSLRLSCAVSGRTFSHSAGGWYRQAPEKQRELVAGIRSDGNINYADSVKDRFTISRDNASNTMYLQMNNLKPGDTAVYVCNIRGSYGNTYYSRWGQGTQVTVSS

The remaining lines, values behind:

Row | Binder | binding result
6 | LMJ1.2C (VHH, sortase-tagged with biotin in the Western blots ; Purified by a his-tag for BLI and sortase-tagged with biotin in the Western blots. The tag letters are not stated for the free nanobody, so they are left out., First round of yeast display; Expressed in E. coli, his-tag purified) VHH: QVQLVETGGGLVQAGGSLRLSCAASGSTFSHSAGGWYRQAPEKQRELVAGIRSDGNINYADSVKDRFTISRDNASNTMYLQMNNLKPEDTAVYVCNIRGSYGNTYYSRWGQGTQVTVSS | no binding
7 | LMJ2.4C (VHH, sortase-tagged with biotin in the Western blots ; Purified by a his-tag for BLI and sortase-tagged with biotin in the Western blots. The tag letters are not stated for the free nanobody, so they are left out., Second round of yeast display; Expressed in E. coli, his-tag purified) VHH: QVQLVEAGGGLVQAGGSLRLSCAASGSTFSHSAGGWYRQAPEKQRELVAGIRSDGNINYADSVKDRFTISRDNASNTMYLQMNNLKPEDTAVYVCNIRGSYGNTYYSRWGQGIQVTVSS | no binding
8 | LMJ1.2G (VHH, sortase-tagged with biotin in the Western blots ; Purified by a his-tag for BLI and sortase-tagged with biotin in the Western blots. The tag letters are not stated for the free nanobody, so they are left out., First round of yeast display; Expressed in E. coli, his-tag purified) VHH: QVQLVETGGGLVQAGGSLRLSCAASGSTFSHSAGGWYRQAPEKQRELVAGIGSDGNINYADSVKDRFTISRDNASNTMYLQMNNLKPEDTAVYVCNIRGSYGNTYYSRWGQGTQVTVSS | no binding
9 | LMJ2.5J (VHH, sortase-tagged with biotin in the Western blots ; Western blots used the nanobody sortase-tagged with biotin at a terminus. The BLI material was his-tag purified. Tag letters are not stated for the stand-alone nanobody and are left out., Second round of yeast display; Expressed in E. coli, his-tag purified) VHH: QVQLVETRGGLVQAGGSLRLSCAVSGSTFSHSAGGWYRQAPEKQRELVAGIGSAGNINYADSVKDRFTISRDNASNTMYLQMNNLKPEDTAVYVCNIRGSYGNTYYSRWGQGTQVTVSS | no binding
10 | LMJ1.3J (VHH, sortase-tagged with biotin in the Western blots ; Purified by a his-tag for BLI and sortase-tagged with biotin in the Western blots. The tag letters are not stated for the free nanobody, so they are left out., First round of yeast display; Expressed in E. coli, his-tag purified) VHH: QVQLVGTGGGLVQAGGSLRLSCAASGSTFSHSAGGWYRQAPEKQRELVAGISSAGNINYADSVKDRFTISRDNASNTMYLQMNNLKPEDTAVYVCNIRGSYGNTYYSRWGQGTQVTVSS | no binding
